Experiment: protease stability score; higher = more stable; yeast display proteolysis, trypsin and chymotrypsin;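 further: relative to predicted unfolded state with 0 unfolded-like and 1 meaning tenfold more protease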

In order of rising protease stability score:
1. DELKDIMREVAEIIIRLEHTGDWRVFRKMADPNVRIDIGDFHIIGREEWRHWIEELRERIKNLKVEIRITHIESQGDKVHSDTRLIIRFDGVTEERTQHLHFVIVDGRVTSVRYENR  0.009
2. REEEEEMEELVRRIIHLLKTGDEREFNRLLDPDARVDDGDWHDHGREAWNKWSEKLRRDAGHENIEFHVRHFEVINGRIIMETKVHIGDKTLDTRLIFVVINGRLTSVRLEIH  0.037
3. DETASRAAERYMKALQTGDPDEVVKQIDPNVHVRVGDKEVQGKEQFRKKQERDKKQARYHIKHVTFNVEGDKVRVDVIFRKHHNGQPRHDRMEQRMSVRGDKITHQENHKTG  0.172
4. SEEEHWVREFEEAVRHDAETGDENSISEFLDPNVRVDINGKELHGRELMDEMIRHFLERYDHIRIHIHDNRLIDGRVEMDIRLYFIQGEKHMEIDSERFIFKVDGKWRLEEVRIK  0.3
5. DDWEEEVHKFSRLFIKSVETGDEDTLHKFADPNVMLHQGDKEYHGREMFVRWSNELLRHLGVSKVRARMHDDKAYNGVVHLDLENRFNGRTVRIEVRIEKINGKWLMTEVRIE  0.622
6. DDHEKLSEEHMRFIRHAIKTGDEETLKELADPDMRINVNGRLFHGWEHFFKIWEHIRRHLRFKDYDIHDFEIYGDKIHADTRVKSRVNGVERIITTEVLIMKVDGRWYNHEVRLH  0.71
7. SEEKEHSDRLAEHLIHWFYTGDEDKLNELFDPNTKYVINGKELHGMESEHRERREEWRRVKNITFSIKHWDIQGNKVILHMTIHVGEKDIFVTYEYRIFDGKMKEIQVHVR  0.867
8. DEEDEYVEKATRFFIKSILTGNEEWVSRLADPHVRLWVGDKEFHGRERYVRVFHEHMRQIRYRDFKLHDIDRQGDKIIVIGRREVEVDGRIDTYEIHIYARKINGRWILESEIVN  0.936
9. DEDKEALHEILRLIAEAWNTGDEHTLRRLFDPDVRVEVGDKEFHGREEVDRWFRHLRIEHVETRLHDTRSQGDKLLSDTRLHFVGEVNGVHFNRSTETDLFVHKVDGRWRIESIRVR  1.03
10. DEHHEVSEKVAKLFLEIWETGDWKTLKRLADPRVRTHIIIGDKTINEHGRENYIRSTVEFLERFPNMRYEIREVRVIGDKIETQGEMNVNGKTFDVIIELIIIDGRIKEVRVENR  1.08
11. SEEEEMVKIADELIRRSWDTGDEDLFLHLADPNTRIFFNGRTVHGREEVEKMIRHMRIDHYELKRIDVYNGQVVIHGKIEITVNGVTKTHEVDIIIEKINGKWILRSIHHK  1.11
12. DERHKMIKDFAHLMLRARKTGDWDVMTRLFDPNTRVTQGDFELHGMESFSDWLHELHRQVPNVVEHDHSVDAFDGRVHLKTEERINGRILRIRIIIIVVDGKIKELRIEVD  1.37
13. DEKRKEMEQLARIIIHLWETGDEEKWREYADPNTRLDVDGRNSHGMHNTLEVLRRRLEELGFDHVEMEIKHITVIGDKAQINGKVHLYWNGKTIDVPSEIIIVIINGRLHSIELRHE  1.44
14. SDHDKRVMHIWRAVLESYLTGDEHTLKELIDPNTRFFIGDKEYHGMETFSRYARRMYEHLRFSIEVKHEDAINGRYDTHLTLHWEIGDKTDTYDTRLHLDVYDGVVKRLEIRVH  1.46
15. EEEHKFITDIVRLFQELLRTGDFTLLRRMIDPHARIDINGVENHGWEKTARHIWELGMTRESEVRIRDVKVYDGRVEIDIEVEIHNDYNGRKIVVRHEIILFVIKFNGRWNLEQIHIK  1.65
16. SEEEEILRRSVEVTLEAFKTGNERILREYLDPHVRFLYNGQEYHGWKDFVRFLINEVRRFDHVEIRLDHWEMQGEKAHFHGRLILDVNGRLEIFRVHIHLFKVDGKWTLRELRIE  1.83
17. TEEEEHLHTLASKDLKAFMTGDWETHKKLADPHVRFELVVGEWRLILHGRERFIEFLIEVLEKMGVDHFHLQHVEVIGNFVRLNIKIEVGDKTHDTRIDLEYINGVIHDVRVEFK  2.02
18. SELEKELREFIKKVVEALATGDEDLLRELFDPHVRVKIGEWHFIGMEEMLRLIREIRMEIEEVRITELQIQGDKIHMETRLHGRLHIGDKERQTHYSTRVNVRKIDGQWITKSWEVH  2.04
19. DSLEDIFKLAVDDLEFLYETGDEEMTSQMADPNVRVIFNGRDFWGWHYLLKIFSELIKKLGIDHIRLEIDHVHLQGDKVDIHGTLRNHIGDFIFVHHTTHFLVKIDGRWFIRSVKIR  2.15
20. DREKKEAEQLIRLINRYIQTGDEHSLSRLMDPHVLLQVGDKKDIGWEIIINKIKEMWEKFKGARFNLEMRDIHLQGDFAEIDVEFEILVNGQFDTLKTRFIIFKIDGRWVIRSLSLE  2.33

— the NTF2 design screens of Basanta et al. (2020)
